The source of these data is patent US20230093155A1 (CUGENE, published 2023).

Sequences and labels used below:
B1: P-0757 (wild-type IL-2RαSushi monovalent Fc fusion) (Fc fusion)
chain: ELCDDDPPEIPHATFKAMAYKEGTMLNCECKRGFRRIKSGSLYMLCTGNSSHSSWDNQCQCTSSATRNTTKQVTPQPEEQKERKTTEMQSPMQPVDQASLPGHCREPPPWENEATERIYHFVVGQMVYYQCVQGYRALHRGPAESVCKMTHGKTRWTQPQLICTG
notes: also called w/t IL-2Rα; not shown: Fc chain fused to the Sushi domain, its linker and orientation, and the partner Fc chain of the monovalent heterodimer
B2: P-0752 (IL-2RαSushi L42G monovalent Fc fusion) (Fc fusion)
chain: ELCDDDPPEIPHATFKAMAYKEGTMLNCECKRGFRRIKSGSGYMLCTGNSSHSSWDNQCQCTSSATRNTTKQVTPQPEEQKERKTTEMQSPMQPVDQASLPGHCREPPPWENEATERIYHFVVGQMVYYQCVQGYRALHRGPAESVCKMTHGKTRWTQPQLICTG
notes: also called IL-2Rα L42G; not shown: Fc chain fused to the Sushi variant, its linker and orientation, and the partner Fc chain of the monovalent heterodimer
B3: P-0751 (IL-2RαSushi Y43A monovalent Fc fusion) (Fc fusion)
chain: ELCDDDPPEIPHATFKAMAYKEGTMLNCECKRGFRRIKSGSLAMLCTGNSSHSSWDNQCQCTSSATRNTTKQVTPQPEEQKERKTTEMQSPMQPVDQASLPGHCREPPPWENEATERIYHFVVGQMVYYQCVQGYRALHRGPAESVCKMTHGKTRWTQPQLICTG
notes: also called IL-2Rα Y43A; not shown: Fc chain fused to the Sushi variant, its linker and orientation, and the partner Fc chain of the monovalent heterodimer
B4: P-0753 (IL-2RαSushi R36A monovalent Fc fusion) (Fc fusion)
chain: ELCDDDPPEIPHATFKAMAYKEGTMLNCECKRGFRAIKSGSLYMLCTGNSSHSSWDNQCQCTSSATRNTTKQVTPQPEEQKERKTTEMQSPMQPVDQASLPGHCREPPPWENEATERIYHFVVGQMVYYQCVQGYRALHRGPAESVCKMTHGKTRWTQPQLICTG
notes: also called IL-2Rα R36A; not shown: Fc chain fused to the Sushi variant, its linker and orientation, and the partner Fc chain of the monovalent heterodimer
B5: L03 (IL-2Rβ-based blocking peptide) (peptide)
peptide: CEISQASHYFERHLC
modifications: bridge 1-15 (inferred); also: biotinylated, site not given here, cyclized, bridge kind not given here
notes: also called cyclized loop 2

Bridge positions count the residues as written; N and C are the ends. Ends that are not written are not given here.

Chain of P-0153 (IL-15/IL-15RαSushi+ Fc fusion protein) (chain, as listed by the source, chain 1 of 2): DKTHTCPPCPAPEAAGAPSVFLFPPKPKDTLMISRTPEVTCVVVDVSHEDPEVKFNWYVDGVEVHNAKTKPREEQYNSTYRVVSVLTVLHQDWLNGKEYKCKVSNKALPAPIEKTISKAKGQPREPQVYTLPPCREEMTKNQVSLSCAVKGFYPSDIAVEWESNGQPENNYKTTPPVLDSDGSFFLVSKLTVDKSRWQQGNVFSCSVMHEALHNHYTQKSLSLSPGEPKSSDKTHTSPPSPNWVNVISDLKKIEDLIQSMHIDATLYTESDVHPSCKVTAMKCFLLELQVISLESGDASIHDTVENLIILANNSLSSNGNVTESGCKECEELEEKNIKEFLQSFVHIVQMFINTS
Chain of P-0153 (IL-15/IL-15RαSushi+ Fc fusion protein) (chain, as listed by the source, chain 2 of 2): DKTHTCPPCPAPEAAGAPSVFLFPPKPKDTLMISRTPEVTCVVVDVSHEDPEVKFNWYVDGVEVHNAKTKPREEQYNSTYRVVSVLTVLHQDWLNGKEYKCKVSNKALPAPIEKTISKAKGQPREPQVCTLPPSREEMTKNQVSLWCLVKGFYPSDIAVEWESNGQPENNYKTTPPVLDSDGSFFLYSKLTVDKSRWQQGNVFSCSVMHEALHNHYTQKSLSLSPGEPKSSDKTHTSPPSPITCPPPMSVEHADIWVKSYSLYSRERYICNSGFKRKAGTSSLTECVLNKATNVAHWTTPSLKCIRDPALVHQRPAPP

The first assay deals with T1, P-0689 (IL-2 Fc fusion) (Homo sapiens (Human), UniProt P0DOX5 223-448 = IgG part).
T1 construct: Monovalent IL-2 S125I Fc fusion; also called IL-2 S125I monovalent Fc fusion protein; monovalent wild-type IL-2 Fc fusion protein
Put plainly: ELISA, IL-2RαSushi Fc fusion coated, P-0689 titrated, biotin anti-IL2 antibody and Avidin-HRP. The procedure:
IL-2Rα variants were designed to reduce binding to IL-2 by incorporating mutations at residues interacting IL-2 so that the D3 moiety would readily diffuse away upon in vivo proteolysis. Three exemplary IL-2RαSushi variants (SEQ ID NOS: 267-269) were expressed as monovalent Fc fusion proteins corresponding to P-0751 (Y43A), P-0752 (L42G), and P-0753 (R36A), respectively. The three IL-2RαSushi variant Fc fusions were assessed for the impacts of individual mutations on binding to IL-2 in ELISA in comparison to their wild-type IL-2RαSushi counterpart fusion referred to as P-0757.
Briefly, IL-2RαSushi variant monovalent Fc fusion proteins was coated onto the wells of Nunc Maxisorp 96-well microplates at 1 μg/well. […] Following a one-hour incubation at room temperature, 100 μl/well of biotin anti-IL2 antibody clone B33-2 (BD biosciences) at 1 μg/ml were added to each well and incubated at room temperature for 1 hour. Subsequently, 100 μl/well of Avidin-HRP (BioLegend) at 1:500 dilution was added to each well and incubated for 30 min. Finally, 100 μl TMB substrate was added to each well; the plate was developed at room temperature, and 100 μl/well of stop solution was added. Absorbance was determined at 450 nm and curves were fit using Prism software (GraphPad).
(In general: ELISA stands for enzyme-linked immunosorbent assay.)
For orientation: EC50 means the concentration that produces a half-maximal response. A low value points to an effect from little substance. With B1, the response was half-maximal at 0.26 nM (EC50) and the “EC50 Fold change vs w/t IL-2Rα” value was determined as 1 fold.

As to B2, the EC50 is 9.2 nM and the “EC50 Fold change vs w/t IL-2Rα” value was 35 fold.

Take B3: the EC50 came out at 2.1 nM and the “EC50 Fold change vs w/t IL-2Rα” value is 8.1 fold.

In the case of B4, the EC50 was determined as 90 nM and the “EC50 Fold change vs w/t IL-2Rα” value was found to be 346 fold.

The next assay concerns the target P-0153 (IL-15/IL-15RαSushi+ Fc fusion protein). The assay is described as follows: ELISA, P-0153 coated, biotinylated peptide titrated, Streptavidin-HRP. The procedure: The five peptides, L01 to L05 (SEQ ID NO: 97-101) in Table 19 were synthesized and assessed for their binding to IL-15 in ELISA format. […] Streptavidin-HRP complex at the manufacturer's recommended concentration was added and signal was developed by TMB substrate.
B5: the binding result is “binds”.
